Measured values reported in patent publication US20120324606A1.

What was measured:
[1] = biological target: BBMV proteins (receptor binding sites) in brush border membrane vesicles from fall armyworm (FAW; Spodoptera frugiperda) larval midgut; test: homologous competition: unlabeled Cry1Be against 0.5 nM 125I Cry1Be on FAW BBMVs
[2] = biological target: BBMV proteins (receptor binding sites) in brush border membrane vesicles from European corn borer (ECB; Ostrinia nubilalis) larval midgut; test: heterologous competition: unlabeled Cry1Be against 0.5 nM 125I Cry1Ab on ECB BBMVs
[3] = biological target: BBMV proteins (receptor binding sites) in brush border membrane vesicles from fall armyworm (FAW; Spodoptera frugiperda) larval midgut; test: heterologous competition: unlabeled Cry1Be against 0.5 nM 125I Cry1Ab on FAW BBMVs
[4] = biological target: BBMV proteins (receptor binding sites) in brush border membrane vesicles from European corn borer (ECB; Ostrinia nubilalis) larval midgut; test: heterologous competition: unlabeled Cry1Be against 0.5 nM 125I Cry1Ab on ECB BBMVs; reference is homologous Cry1Ab
[5] = biological target: BBMV proteins (receptor binding sites) in brush border membrane vesicles from fall armyworm (FAW; Spodoptera frugiperda) larval midgut; test: heterologous competition: unlabeled Cry1Be against 0.5 nM 125I Cry1Ab on FAW BBMVs; reference is homologous Cry1Ab

B1: Cry1Be insecticidal protein (purified truncated Cry toxin) (ligand)
chain: IEDSLCIAEGNNIDPFVSASTVQTGINIAGRILGVLGVPFAGQIASFYSFLVGELWPRGRDPWEIFLEHVEQLIRQQVTENTRDTALARLQGLGNSFRAYQQSLEDWLENRDDARTRSVLYTQYIALELDFLNAMPLFAIRNQEVPLLMVYAQAANLHLLLLRDASLFGSEFGLTSQEIQRYYERQVEKTREYSDYCARWYNTGLNNLRGTNAESWLRYNQFRRDLTLGVLDLVALFPSYDTRVYPMNTSAQLTREIYTDPIGRTNAPSGFASTNWFNNNAPSFSAIEAAVIRPPHLLDFPEQLTIFSVLSRWSNTQYMNYWVGHRLESRTIRGSLSTSTHGNTNTSINPVTLQFTSRDVYRTESFAGINILLTTPVNGVPWARFNWRNPLNSLRGSLLYTIGYTGVGTQLFDSETELPPETTERPNYESYSHRLSNIRLISGNTLRAPVYSWTHRSADRTNTISSDSITQIPLVKSFNLNSGTSVVSGPGFTGGDIIRTNVNGSVLSMGLNFNNTSLQRYRVRVRYAASQTMVLRVTVGGSTTFDQGFPSTMSANESLTSQSFRFAEFPVGISASGSQTAGISISNNAGRQTFHFDKIEFIPITAT
modifications: ^125I iodination (Iodo-Beads) in the radiolabeled form only; sites not stated
With B1 the IC50 [1] was 2 nM, the IC50 [2] was 40 nM and the IC50 [3] was 300 nM. The fold higher concentration for 50% displacement, against Cry1Ab [4] was 80 fold and the fold greater concentration for 50% displacement, against Cry1Ab [5] was 1000 fold.
